According to paper PMC12757795, “WRKY45 is a negative regulator of Botrytis cinerea resistance through the JA/ET signaling pathway in Arabidopsis”:

Biological target: GST-WRKY45 (UniProt Q9S763 1-147)
Test: EMSA; Beyotime chemiluminescent EMSA kit binding buffer (composition, salt and pH not stated), room temperature, 20 min, 6% native PAGE; unlabeled competitor 5x and 50x or 50-100x (Methods)
Conditions: protein: recombinant; tags: GST; label: biotin (end); blunt

Sequence of GST-WRKY45 (Q9S763 whole entry): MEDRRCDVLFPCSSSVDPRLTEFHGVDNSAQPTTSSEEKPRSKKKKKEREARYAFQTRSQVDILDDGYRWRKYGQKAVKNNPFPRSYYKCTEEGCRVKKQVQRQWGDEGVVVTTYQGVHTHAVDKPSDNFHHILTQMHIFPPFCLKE

Row | Binder | binding result
1 | ORA59-W2 (dsDNA) DNA 1: TAATCGCATCGCATGTTTGACCCATTTAGCCGCATAT DNA 2: ATATGCGGCTAAATGGGTCAAACATGCGATGCGATTA | binds
2 | ORA59-W3 (dsDNA) DNA 1: CCATCTAACAACAAATTTGACCAAAAGTTTCCTTATT DNA 2: AATAAGGAAACTTTTGGTCAAATTTGTTGTTAGATGG | binds
3 | ORA59-W6 (dsDNA) DNA 1: GAAACCGACGTTAGGTTTGACTATTTTATTTACAGTC DNA 2: GACTGTAAATAAAATAGTCAAACCTAACGTCGGTTTC | binds
4 | ORA59-W1-M (dsDNA) DNA 1: CGATTTAGCCGCATGTTTTTCCTATTTTGCCCACATA DNA 2: TATGTGGGCAAAATAGGAAAAACATGCGGCTAAATCG | no binding
